How the values were obtained:
[1] = tested on: recombinant nucleosomes (histone H3K4); assay: In vitro histone methyltransferase (HMT) assay of MLL3/MLL4 constructs; format: biochemical; conditions: recombinant nucleosomes 0.5 μg, 2.5 μCi [3H]-SAM, 30 °C, 16 h, autoradiography (Fig. 3b, c)
Experimental: Mammalian expression plasmids encoding different fusions of MLL3 PHD and SET domains were subcloned into the pFLAG-CMV2 vector (Sigma-Aldrich, E7033) and were transiently expressed in HEK 293T cells (ATCC® ACS-4500™) by using Lipofectamine 2000 (ThermoFisher Scientific, 11668027) according to manufacturer’s protocol. Two days after transfection, cells were harvested and then lysed by mammalian lysis buffer (20 mM Tris-HCl, 137 mM NaCl, 1.5 mM MgCl2, 1 mM EDTA, 10% glycerol, 1% Triton X-100, 0.2 mM PMSF, 1 μg mL^−1 aprotinin, 2.5 μg mL^−1 leupeptin, and 1 μg mL^−1 pepstatin at pH 8.0). FLAG immunoprecipitation (FLAG IP) was performed in a similar way as described previously. In brief, total cell lysates were incubated with anti-FLAG M2 Affinity Gel (Sigma-Aldrich, A2220) in 4 °C for 5 h and were extensively washed with BC500 (20 mM Tris-HCl, 500 mM KCl, 1.5 mM MgCl2, 0.2 mM EDTA, 10% glycerol, 0.2 mM PMSF at pH 8.0). […]
HMT assay was performed according to a previously described method with minor modifications. […] The signals for HMT activity were detected by autoradiography. The input of the MLL3/4 proteins and nucleosomes were detected by mouse monoclonal anti-FLAG M2 (Sigma-Aldrich, F3165, 1:1000) and rabbit polyclonal anti-H3 antibody (Abcam, ab1791, 1:1000), respectively. […]

MLL3_(ePHD6)1055–1144 = target: T1, MLL3_(ePHD6)1055–1144 (Homo sapiens, UniProt Q8NEZ4); assay: ITC binding of histone peptides to MLL3 ePHD6 (1055–1144); set-up: key to ITC titration, Kd / Kd: NB: no detectable binding; conditions: for Kd / binding to ePHD6 of MLL3 (in words): ITC; for Kd: 20 mM Tris pH 7.5, 150 mM NaCl, 25 °C, protein 50–100 μM in cell, peptide 1–2 mM in syringe, single measurement, error from fitting curve; for ITC titration, Kd: Supplementary Fig. 4 and 7, MLL3_ePHD6, pH 7.5, 25 °C
T1 construct: MLL3_ePHD6, residues 1055–1144 and residues 1075–1144; GST (N, cleaved yes); His (N, cleaved yes); made in house; host or cells: E. coli BL21 (DE3) Codon plus RIL
T1 sequence (Q8NEZ4 1055-1144): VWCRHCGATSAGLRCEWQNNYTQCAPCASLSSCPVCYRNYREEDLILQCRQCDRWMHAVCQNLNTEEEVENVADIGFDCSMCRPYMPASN
Source text: (§1) The DNA fragments of MLL3 and MLL4 PHD domains (MLL3_ePHD6, residues 1055–1144 and residues 1075–1144; MLL3_PHD6, residues 1085–1144; MLL3_PHD5, residues 1009–1055; MLL3_PHD5-6, residues 1008–1144; MLL3_ePHD3, residues 436–525; MLL4_ePHD6, residues 1475–1564, and residues 1495–1564; MLL4_PHD6 residues 1505–1564 and MLL4_PHD5 residues 1429–1475) were subcloned into a modified pET28GST-LIC vector by T4 ligase-independent method (Clontech, 638920) to generate N-terminal GST, His-tagged fusion protein. The recombinant protein was overexpressed in E coli BL21 (DE3) Codon plus RIL (Stratagene) at 15 °C by induction with 0.25 mM IPTG at an OD600 of 0.8 and purified by affinity chromatography on Ni-nitrilotriacetate resin (Qiagen, 30250) followed by thrombin protease treatment to remove the tag. The protein was further purified by HiTrap Q HP column (GE Healthcare, 17115401) by using buffers with 20 mM Tris, pH 8.0, 1 mM DTT, 50 mM NaCl (low salt buffer) or 1 M NaCl (high salt buffer), and Superdex75 gel-filtration column (GE Healthcare, 28989333) by using a buffer containing 20 mM Tris, pH 7.5, 150 mM NaCl, 50 μM ZnCl2, and 1 mM DTT. For crystallization experiments, purified protein was concentrated to 5 mg mL^−1 in the same buffer as gel-filtration by using Amicon Ultra-15 Centrifugal Filter Units (Millipore Corporation, UFC901024).
(§2) For the ITC measurement, the concentrated proteins were diluted into 20 mM Tris, pH 7.5, 150 mM NaCl; the lyophilized peptides (Peptide 2.0 Inc.) were dissolved in the same buffer, and the pH value was adjusted by adding NaOH. Peptides concentrations were estimated from the mass. […] The protein with a concentration of 50–100 μM was placed in the cell chamber, and the peptides with a concentration of 1–2 mM in syringe was injected in 25 (19 for iTC-200) successive injections with a spacing of 180 s (150 s for iTC-200) and a reference power of 13 μcal s^−1 (6 μcal s^−1 for iTC-200). Control experiments were performed under identical conditions to determine the heat signals that arise from injection of the peptides into the buffer.

MLL4_(ePHD6)1475–1564 = target: T2, MLL4_(ePHD6)1475–1564 (Homo sapiens, UniProt O14686); assay: ITC binding of histone peptides to MLL4 ePHD6 (1475–1564); set-up: key to ITC titration, Kd / Kd: NB: no detectable binding; conditions: for Kd / binding to ePHD6 of MLL4 (in words): ITC; for Kd: 20 mM Tris pH 7.5, 150 mM NaCl, 25 °C, protein 50–100 μM in cell, peptide 1–2 mM in syringe, single measurement, error from fitting curve; for ITC titration, Kd: Supplementary Fig. 4 and 7, MLL4_ePHD6, pH 7.5, 25 °C
T2 construct: MLL4_ePHD6, residues 1475–1564, and residues 1495–1564; GST (N, cleaved yes); His (N, cleaved yes); made in house; host or cells: E. coli BL21 (DE3) Codon plus RIL
Source text: as §1, §2

[2] = tested on: fourth (PHD4), fifth (PHD5), and sixth (PHD6) PHD domains of MLL4; conditions: peptide pull-down; histone H4 fragment containing the first 23 amino acids; ref [29]; cited from earlier work
Source text: (§3) Both MLL3 and MLL4 are multi-domain proteins, containing not only the catalytic SET domain but also a few other domains, including two clusters of PHD domains (Fig. 1a). […] The interaction between histone H4_1–23 and PHD6 do ...

PHD6 domain of MLL4 = conditions: ITC; ref [29]; cited from earlier work
Source text: as §3

[3] = Gel filtration, oligomeric state in solution; format: physicochemical; conditions: Superdex200 10/300 GL, 20 mM Tris pH 7.5, 150 mM NaCl, 50 μM ZnCl2, 1 mM DTT
Experimental: Supplementary Fig. 3 Superimposition of gel-filtration curves of PHD6 and ePHD6 domains of MLL3 and MLL4. Gel filtration chromatography of MLL3 ePHD6 (red), PHD6 (pink), MLL4 ePHD6 (brown), PHD6 (green) and protein molecular weight standards (blue, Bio-Rad). Samples were loaded to the Superdex200 10/300 GL (GE Healthcare) column in the buffer containing 20 mM Tris, pH 7.5, 150 mM NaCl, 50 μM ZnCl2,and1mMDTT. […]

T2 sequence (O14686 1475-1564): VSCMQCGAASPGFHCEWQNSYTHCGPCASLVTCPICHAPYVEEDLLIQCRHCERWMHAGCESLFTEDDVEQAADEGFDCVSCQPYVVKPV

For “1M: W1109A single point mutation of MLL3”, the nucleosomal methyltransferase activity [1] was “reduced the enzyme activity”.
For “2M: W1109A/E1120A double point mutation of MLL3”, the nucleosomal methyltransferase activity [1] was “reduced the enzyme activity”.
With “H3_1–20: histone H3 peptide, residues 1–20” the Kd (MLL3_(ePHD6)1055–1144) was “NB” and the Kd (MLL4_(ePHD6)1475–1564) was “NB”.
In the case of “H4R3me0: histone H4 fragment containing the first 23 amino acids, unmethylated”, the “recognition by PHD4, PHD5 and PHD6 of MLL4” value [2] is listed as “able to recognize”.
For “H4R3me2a: histone H4 fragment containing the first 23 amino acids, asymmetrically dimethylated on histone H4R3”, the “recognition by PHD4, PHD5 and PHD6 of MLL4” value [2] is given as “able to recognize”.
With “H4_1–12: histone H4 peptide covering the first 12 residues” the “binding to ePHD6 of MLL3 (in words)” value (MLL3_(ePHD6)1055–1144) was “neither MLL3 nor MLL4 displayed detectable binding”, the Kd (MLL3_(ePHD6)1055–1144) was “NB” and the “binding to ePHD6 of MLL4 (in words)” value (MLL4_(ePHD6)1475–1564) was “neither MLL3 nor MLL4 displayed detectable binding”. For the same substance, the Kd (MLL4_(ePHD6)1475–1564) was “NB”.
In the case of “H4_1–12R3me2a: histone H4 peptide covering the first 12 residues, asymmetrically methylated (H4R3me2a)”, the Kd (MLL3_(ePHD6)1055–1144) is reported as “NB” and the Kd (MLL4_(ePHD6)1475–1564) is reported as “NB”.
In the case of “H4_1–23: histone H4 fragment containing the first 23 amino acids”, the “interaction with PHD6 domain” value (PHD6 domain of MLL4) is listed as “confirmed”.
In the case of “H41–24H18A: histone H4-derived mutant peptide”, the “ITC titration, Kd” value (MLL3_(ePHD6)1055–1144) is reported as “NB” and the “ITC titration, Kd” value (MLL4_(ePHD6)1475–1564) is reported as “NB”.
For “H411–21H18A: histone H4-derived mutant peptide (GKGGAKRARKV; UniProt P62805 12-22, looked up, variant H18A)”, the “ITC titration, Kd” value (MLL3_(ePHD6)1055–1144) was “NB” and the “ITC titration, Kd” value (MLL4_(ePHD6)1475–1564) was “NB”.
For “H411–21K16A: histone H4-derived mutant peptide (GKGGAARHRKV; UniProt P62805 12-22, looked up, variant K16A)”, the “binding to ePHD6 of MLL3 (in words)” value (MLL3_(ePHD6)1055–1144) was “weakened the binding significantly”, the “ITC titration, Kd” value (MLL3_(ePHD6)1055–1144) was “Weak binding” and the “binding to ePHD6 of MLL4 (in words)” value (MLL4_(ePHD6)1475–1564) was “weakened the binding significantly”. For the same substance, the “ITC titration, Kd” value (MLL4_(ePHD6)1475–1564) was “Weak binding”.
With “H411–21R17A: histone H4-derived mutant peptide (GKGGAKAHRKV; UniProt P62805 12-22, looked up, variant R17A)” the “ITC titration, Kd” value (MLL3_(ePHD6)1055–1144) was “NB” and the “ITC titration, Kd” value (MLL4_(ePHD6)1475–1564) was “NB”.
In the case of “H411–21R19A: histone H4-derived mutant peptide (GKGGAKRHAKV; UniProt P62805 12-22, looked up, variant R19A)”, the “binding to ePHD6 of MLL3 (in words)” value (MLL3_(ePHD6)1055–1144) is reported as “weakened the binding significantly”, the “ITC titration, Kd” value (MLL3_(ePHD6)1055–1144) is reported as “Weak binding” and the “binding to ePHD6 of MLL4 (in words)” value (MLL4_(ePHD6)1475–1564) is reported as “weakened the binding significantly”. For the same substance, the “ITC titration, Kd” value (MLL4_(ePHD6)1475–1564) was “Weak binding”.
With “MLL3 PHD6: PHD6 domain of MLL3 (SSCPVCYRNYREEDLILQCRQCDRWMHAVCQNLNTEEEVENVADIGFDCSMCRPYMPASN; left off: GST, N-terminal, cleaved | His tag, N-terminal, cleaved)” the “oligomeric state in solution” value [3] was “monomer in solution”.
In the case of “MLL4 PHD6: PHD6 domain of MLL4 (VTCPICHAPYVEEDLLIQCRHCERWMHAGCESLFTEDDVEQAADEGFDCVSCQPYVVKPV; left off: GST, N-terminal, cleaved | His tag, N-terminal, cleaved)”, the “oligomeric state in solution” value [3] is reported as “dimer in solution”.

Reference: PMC6318328, “Structural insights into trans-histone regulation of H3K4 methylation by unique histone H4 binding of MLL3/4” (Nature Communications, 2019)
